# Reference: patent US20260009008A1, “SYNTHETIC GENOME EDITING SYSTEM” (Pencil Biosciences Limited, priority 2021, published 2026)
# Entries after “also recorded” stand apart in the source; their conditions may differ.
# Columns and labels:
# [1] = Thioflavin T assay; format: physicochemical; conditions: 200 μM peptide, 25 μM ThT, 37° C., excitation 450 nm
# Description: Appropriate self-assembling peptides (alternatively referred to as folding peptides as in a single folding structure) will form a structure which can be identified by thioflavin T (Tht) binding. Fluorescence emission assay of Thioflavin T binding is commonly employed to detect amyloid fibrils. Upon binding to amyloid fibrils, ThT gives a strong fluorescence signal at approximately 482-485 nm when excited at 450 nm (Xue et al. (2017) Royal. Soc. Open Sci. 4:160696, 'Thioflavin T as an amyloid dye: fibril quantification, optimal concentration and effect on aggregation).
# Such peptides were tested for ability to self-assemble to provide a β-sheet supramolecular structure and nickase activity. Ability to provide a β-sheet supramolecular structure was determined by thioflavin T fluorescence binding (Xue et al. (2017) Royal Soc. Open Sci. 4:160696). Nickase activity was investigated by means of a molecular beacon assay combined with a gel plasmid cleavage assay.
# Thioflavin T (ThT) was mixed with the peptides in reaction buffer solution. Peptides were diluted to 200 μM (from a stock solution of 4.4 mM in DMSO) using a reaction buffer solution (the same buffer as used for the initial molecular beacon assays as set out below). […] The emission signal at 485 nm was measured every 5 minutes using an excitation wavelength of 450 nm. […]
# [2] = tested on: plasmid DNA (pBR322); test: Gel plasmid cleavage assay; format: biochemical
# Description: For this reason a further gel plasmid cleavage assay was employed to look for cleavage. Such a gel cleavage assay can differentiate between plasmid that is intact (no cleavage), nicked (ssDNA cleavage) and linearised (dsDNA cleavage) as the three plasmid species will migrate differently on an agarose gel. Intact plasmids have a supercoiled structure and therefore can migrate easily through an agarose gel whereas a ssDNA cleavage on the plasmid will relax this supercoiled structure. This produces a relaxed circle/nicked structure that migrates more slowly through the pores. The dsDNA cleavage of a plasmid produces a linearised plasmid. The linear structure migrates faster than a relaxed circular structure although not as fast as the supercoiled structure.
# To optimize the assay, plasmid DNA (pBR322) was mixed with increasing concentrations of the peptide bL or bN, in the presence of Zn^2 + ions. […] The percentage of nicked species increases with greater peptide concentration for both bL and bN. […] An increasing proportion of the plasmid DNA is also observed in the wells of the gel. This DNA can be binding to the peptide causing a complex that is unable to migrate into the gel.
# [3] = Observation of peptide aggregation / precipitation; format: physicochemical
substance,measurement,setting,value
LELDLHL [bD],Thioflavin T emission signal at 485 nm (amyloid-like fibrils),[1],high emission signal was measured instantly; also recorded: higher propensity to produce a highly stable amyloid beta sheet structure; also recorded: indicative of production of amyloid β-sheet structure
same,cleavage of plasmid,[2],some cleavage
same,percentage of cleavage versus peptide concentration,[2],increase with peptide concentration
same,aggregation / precipitation of peptide,[3],least propensity to aggregate and to precipitate
